Test results taken from PMC2186984.

B1: radiolabelled C4-binding protein (125I-C4-bp or 131I-C4-bp) (natural protein)
chain: NCGPPPTLSFAAPMDITLTETRFKTGTTLKYTCLPGYVRSHSTQTLTCNSDGEWVYNTFCIYKRCRHPGELRNGQVEIKTDLSFGSQIEFSCSEGFFLIGSTTSRCEVQDRGVGWSHPLPQCEIVKCKPPPDIRNGRHSGEENFYAYGFSVTYSCDPRFSLLGHASISCTVENETIGVWRPSPPTCEKITCRKPDVSHGEMVSGFGPIYNYKDTIVFKCQKGFVLRGSSVIHCDADSKWNPSPPACEPNSCINLPDIPHASWETYPRPTKEDVYVVGTVLRYRCHPGYKPTTDEPTTVICQKNLRWTPYQGCEALCCPEPKLNNGEITQHRKSRPANHCVYFYGDEISFSCHETSRFSAICQGDGTWSPRTPSCGDICNFPPKIAHGHYKQSSSYSFFKEEIIYECDKGYILVGQAKLSCSYSHWSAPAPQCKALCRKPELVNGRLSVDKDQYVEPENVTIQCDSGYGVVGPQSITCSGNRTWYPEVPKCEWETPEGCEQVLTGKRLMQCLPNPEDVKMALEVYKLSLEIEQLELQRDSARQSTLDKEL
modifications: 125I or 131I label (iodinated by means of Enzymobeads)
B2: C2 (natural protein)
chain: APSCPQNVNISGGTFTLSHGWAPGSLLTYSCPQGLYPSPASRLCKSSGQWQTPGATRSLSKAVCKPVRCPAPVSFENGIYTPRLGSYPVGGNVSFECEDGFILRGSPVRQCRPNGMWDGETAVCDNGAGHCPNPGISLGAVRTGFRFGHGDKVRYRCSSNLVLTGSSERECQGNGVWSGTEPICRQPYSYDFPEDVAPALGTSFSHMLGATNPTQKTKESLGRKIQIQRSGHLNLYLLLDCSQSVSENDFLIFKESASLMVDRIFSFEINVSVAIITFASEPKVLMSVLNDNSRDMTEVISSLENANYKDHENGTGTNTYAALNSVYLMMNNQMRLLGMETMAWQEIRHAIILLTDGKSNMGGSPKTAVDHIREILNINQKRNDYLDIYAIGVGKLDVDWRELNELGSKKDGERHAFILQDTKALHQVFEHMLDVSKLTDTICGVGNMSANASDQERTPWHVTIKPKSQETCRGALISDQWVLTAAHCFRDGNDHSLWRVNVGDPKSQWGKEFLIEKAVISPGFDVFAKKNQGILEFYGDDIALLKLAQKVKMSTHARPICLPCTMEANLALRRPQGSTCRDHENELLNKQSVPAHFVALNGSKLNINLKMGVEWTSCAEVVSQEKTMFPNLTDVREVVTDQFLCSGTQEDESPCKGESGGAVFLERRFRFFQVGLVSWGLYNPCLGSADKNSRKRAPRSKVPPPRDFHINLFRMQPWLRQHLGDVLNFLPL

Target: cell-bound C4b (on EAC4 or EAC14 cells) (human) (UniProt P0C0L4)
Experiment: radioligand binding

| Binder | Ka [M⁻¹] | percent of 125I-C4-bp incorporated into the cells [%] | percent of bound C4-bp released in the absence of C2 [%] | stoichiometry N (C4-bp molecules bound per C4b molecule) | maximum percent of bound 125I-C4-bp released by C2 [%] |
| --- | --- | --- | --- | --- | --- |
| B1 | 4.6e+08 | 10.5 | 8 | 0.43 |  |
| B2 |  |  |  |  | 50 |
